Tests used:
Assay in all cases: holdup assay
Set-up in all cases: key: below the threshold = too weak to quantify, mostly under pKd 3.1 to 4
MAGI1_2, Q96QZ7 = biological target: MAGI1_2, Q96QZ7
SCRIB_3, Q14160 = biological target: SCRIB_3, Q14160
DLG4_3, P78352 = biological target: DLG4_3, P78352
GRASP, Q7Z6J2 = biological target: GRASP, Q7Z6J2
RADIL, Q96JH8 = biological target: T1, RADIL, Q96JH8
T1 sequence (Q96JH8 971-1071, limits assumed, looked up): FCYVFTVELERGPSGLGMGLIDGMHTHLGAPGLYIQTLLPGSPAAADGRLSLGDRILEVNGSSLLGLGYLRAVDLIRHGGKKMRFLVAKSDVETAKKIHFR

GRIP1_5, Q9Y3R0 = biological target: T2, GRIP1_5, Q9Y3R0
T2 sequence (Q9Y3R0 568-668, limits assumed, looked up): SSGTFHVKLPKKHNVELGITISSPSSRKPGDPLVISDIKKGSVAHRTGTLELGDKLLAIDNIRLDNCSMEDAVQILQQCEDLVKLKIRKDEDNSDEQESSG

MAGI3_2, Q5TCQ9 = biological target: MAGI3_2, Q5TCQ9
DLG1_3, Q12959 = biological target: DLG1_3, Q12959
TJP1_2, Q07157 = biological target: TJP1_2, Q07157
LIN7A, O14910 = biological target: T3, LIN7A, O14910
T3 sequence (O14910 103-200, limits assumed, looked up): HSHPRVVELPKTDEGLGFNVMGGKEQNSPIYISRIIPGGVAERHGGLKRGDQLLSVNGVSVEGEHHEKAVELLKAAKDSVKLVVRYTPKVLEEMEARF

SIPA1L2, Q9P2F8 = biological target: T4, SIPA1L2, Q9P2F8
T4 sequence (Q9P2F8 945-1036, limits assumed, looked up): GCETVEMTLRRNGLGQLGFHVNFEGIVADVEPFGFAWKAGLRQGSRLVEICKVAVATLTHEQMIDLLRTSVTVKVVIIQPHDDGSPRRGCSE

DLG3_1, Q92796 = biological target: T5, DLG3_1, Q92796
T5 sequence (Q92796 125-227, limits assumed, looked up): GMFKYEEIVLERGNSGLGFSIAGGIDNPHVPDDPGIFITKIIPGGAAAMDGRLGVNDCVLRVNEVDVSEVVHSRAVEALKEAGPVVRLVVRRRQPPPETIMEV

DLG4_2, P78352 = biological target: DLG4_2, P78352
FRMPD3, Q5JV73 = biological target: FRMPD3, Q5JV73
SHANK1, Q9Y566 = biological target: T6, SHANK1, Q9Y566
T6 sequence (Q9Y566 658-767, limits assumed, looked up): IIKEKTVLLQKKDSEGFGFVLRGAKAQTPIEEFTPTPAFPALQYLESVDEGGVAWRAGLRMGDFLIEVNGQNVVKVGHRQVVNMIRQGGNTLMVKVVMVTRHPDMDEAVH

DLG1_1, Q12959 = biological target: DLG1_1, Q12959
GORASP2, Q9H8Y8 = biological target: GORASP2, Q9H8Y8
SCRIB_2, Q14160 = biological target: SCRIB_2, Q14160
PDLIM1, O00151 = biological target: PDLIM1, O00151
MPP6, Q9NZW5 = biological target: T7, MPP6, Q9NZW5
T7 sequence (Q9NZW5 125-219, limits assumed, looked up): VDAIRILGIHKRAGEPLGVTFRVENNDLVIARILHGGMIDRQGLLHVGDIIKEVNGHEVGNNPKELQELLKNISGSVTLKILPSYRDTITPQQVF

GOPC, Q9HD26 = biological target: GOPC, Q9HD26
TJP2_1, Q9UDY2 = biological target: TJP2_1, Q9UDY2
ARHGEF11, O15085 = biological target: T8, ARHGEF11, O15085
T8 sequence (O15085 42-136, limits assumed, looked up): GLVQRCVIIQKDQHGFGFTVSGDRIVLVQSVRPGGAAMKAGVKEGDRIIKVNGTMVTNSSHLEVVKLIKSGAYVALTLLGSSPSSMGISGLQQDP

IL16_1, Q14005 = biological target: IL16_1, Q14005
MAGI2_2, Q86UL8 = biological target: MAGI2_2, Q86UL8
AHNAK1, Q09666 = biological target: AHNAK1, Q09666
DLG3_2, Q92796 = biological target: T9, DLG3_2, Q92796
T9 sequence (Q92796 221-321, limits assumed, looked up): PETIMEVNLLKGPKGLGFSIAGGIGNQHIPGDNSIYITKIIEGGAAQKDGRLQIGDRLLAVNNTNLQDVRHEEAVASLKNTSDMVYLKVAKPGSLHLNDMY

LDB3, O75112 = biological target: LDB3, O75112
[1] = plain residues with an end cap or a label only (N-terminal biotin on a linker: (peg)3)
[2] = plain residues with an end cap or a label only (N-terminal biotin on a linker: ado-ado)

Sequence of SCRIB_3, Q14160 (Q14160 999-1103): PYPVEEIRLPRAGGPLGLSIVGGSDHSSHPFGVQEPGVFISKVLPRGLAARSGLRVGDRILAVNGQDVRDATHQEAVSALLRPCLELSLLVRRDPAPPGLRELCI
Sequence of FRMPD3, Q5JV73 (Q5JV73 12-100): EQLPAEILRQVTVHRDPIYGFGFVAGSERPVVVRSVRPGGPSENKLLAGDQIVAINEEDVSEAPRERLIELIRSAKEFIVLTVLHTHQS
Sequence of AHNAK1, Q09666 (Q09666 4-100): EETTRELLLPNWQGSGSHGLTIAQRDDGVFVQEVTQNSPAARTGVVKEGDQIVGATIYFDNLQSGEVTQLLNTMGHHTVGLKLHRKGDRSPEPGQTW
Sequence of GRASP, Q7Z6J2 (Q7Z6J2 96-193): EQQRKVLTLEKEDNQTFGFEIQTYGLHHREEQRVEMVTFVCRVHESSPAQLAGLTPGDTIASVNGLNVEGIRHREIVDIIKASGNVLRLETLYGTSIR
Sequence of MAGI3_2, Q5TCQ9 (Q5TCQ9 398-503): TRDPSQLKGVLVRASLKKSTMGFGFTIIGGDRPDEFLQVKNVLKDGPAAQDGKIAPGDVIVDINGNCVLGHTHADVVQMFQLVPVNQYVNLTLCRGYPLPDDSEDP
Sequence of DLG4_3, P78352 (P78352 306-403): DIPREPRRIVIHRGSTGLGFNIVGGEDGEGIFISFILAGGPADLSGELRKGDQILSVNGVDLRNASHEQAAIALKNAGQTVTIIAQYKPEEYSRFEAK
Sequence of MAGI1_2, Q96QZ7 (Q96QZ7 456-580): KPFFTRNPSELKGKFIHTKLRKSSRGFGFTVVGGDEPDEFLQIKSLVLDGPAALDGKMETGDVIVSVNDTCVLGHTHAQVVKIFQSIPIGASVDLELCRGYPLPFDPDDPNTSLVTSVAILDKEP
Sequence of MAGI2_2, Q86UL8 (Q86UL8 410-522): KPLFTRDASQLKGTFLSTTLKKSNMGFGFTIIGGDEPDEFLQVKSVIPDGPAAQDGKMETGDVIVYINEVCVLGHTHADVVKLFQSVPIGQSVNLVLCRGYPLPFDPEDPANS
Sequence of DLG4_2, P78352 (P78352 155-259): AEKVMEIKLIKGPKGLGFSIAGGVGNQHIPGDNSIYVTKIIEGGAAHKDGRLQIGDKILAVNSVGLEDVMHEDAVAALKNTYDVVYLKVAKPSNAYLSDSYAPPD
Sequence of TJP1_2, Q07157 (Q07157 181-274): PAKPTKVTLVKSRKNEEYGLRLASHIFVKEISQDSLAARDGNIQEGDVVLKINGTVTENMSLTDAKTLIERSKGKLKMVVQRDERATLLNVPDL
Sequence of PDLIM1, O00151 (O00151 1-87): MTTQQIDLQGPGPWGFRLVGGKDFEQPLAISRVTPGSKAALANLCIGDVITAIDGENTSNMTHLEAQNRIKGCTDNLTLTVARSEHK
Sequence of TJP2_1, Q9UDY2 (Q9UDY2 24-128): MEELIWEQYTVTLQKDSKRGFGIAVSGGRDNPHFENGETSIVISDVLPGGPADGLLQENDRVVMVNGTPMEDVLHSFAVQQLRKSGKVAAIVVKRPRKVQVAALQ
Sequence of LDB3, O75112 (O75112 1-94): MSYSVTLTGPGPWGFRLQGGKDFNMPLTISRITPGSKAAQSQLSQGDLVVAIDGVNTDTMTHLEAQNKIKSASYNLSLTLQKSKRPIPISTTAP
Sequence of IL16_1, Q14005 (Q14005 210-306): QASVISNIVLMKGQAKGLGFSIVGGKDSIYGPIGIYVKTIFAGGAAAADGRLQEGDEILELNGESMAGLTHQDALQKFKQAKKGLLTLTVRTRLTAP
Sequence of SCRIB_2, Q14160 (Q14160 857-960): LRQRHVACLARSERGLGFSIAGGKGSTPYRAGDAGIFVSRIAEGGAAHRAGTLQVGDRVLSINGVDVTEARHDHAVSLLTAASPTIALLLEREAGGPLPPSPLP

NLNSSEGVPDLLV [SARS-CoV-E, P59637]
pKd (MAGI1_2, Q96QZ7; [1]): below the threshold
pKd (SCRIB_3, Q14160; [1]): below the threshold
pKd (DLG4_3, P78352; [1]): below the threshold
pKd (GRASP, Q7Z6J2; [1]): below the threshold
pKd (RADIL, Q96JH8; [1]): below the threshold
pKd (GRIP1_5, Q9Y3R0; [1]): below the threshold
pKd (MAGI3_2, Q5TCQ9; [1]): below the threshold
pKd (DLG1_3, Q12959; [1]): below the threshold
pKd (TJP1_2, Q07157; [1]): 5.18
pKd (LIN7A, O14910; [1]): below the threshold
pKd (SIPA1L2, Q9P2F8; [1]): below the threshold
pKd (DLG3_1, Q92796; [1]): below the threshold
pKd (DLG4_2, P78352; [1]): below the threshold
pKd (FRMPD3, Q5JV73; [1]): below the threshold
pKd (SHANK1, Q9Y566; [1]): below the threshold
pKd (DLG1_1, Q12959; [1]): below the threshold
pKd (GORASP2, Q9H8Y8; [1]): below the threshold
pKd (SCRIB_2, Q14160; [1]): below the threshold
pKd (PDLIM1, O00151; [1]): below the threshold
pKd (MPP6, Q9NZW5; [1]): below the threshold
pKd (GOPC, Q9HD26; [1]): below the threshold
pKd (TJP2_1, Q9UDY2; [1]): below the threshold
pKd (ARHGEF11, O15085; [1]): below the threshold
pKd (IL16_1, Q14005; [1]): below the threshold
pKd (MAGI2_2, Q86UL8; [1]): below the threshold
pKd (AHNAK1, Q09666; [1]): below the threshold
pKd (DLG3_2, Q92796; [1]): below the threshold
pKd (LDB3, O75112; [1]): below the threshold

QKNRKAQEDL [CES3, Q6UWW8]
pKd (MAGI1_2, Q96QZ7; [2]): below the threshold
pKd (SCRIB_3, Q14160; [2]): below the threshold
pKd (DLG4_3, P78352; [2]): below the threshold
pKd (GRASP, Q7Z6J2; [2]): below the threshold
pKd (RADIL, Q96JH8; [2]): below the threshold
pKd (GRIP1_5, Q9Y3R0; [2]): below the threshold
pKd (MAGI3_2, Q5TCQ9; [2]): below the threshold
pKd (DLG1_3, Q12959; [2]): below the threshold
pKd (TJP1_2, Q07157; [2]): below the threshold
pKd (LIN7A, O14910; [2]): below the threshold
pKd (SIPA1L2, Q9P2F8; [2]): below the threshold
pKd (DLG3_1, Q92796; [2]): below the threshold
pKd (DLG4_2, P78352; [2]): below the threshold
pKd (FRMPD3, Q5JV73; [2]): below the threshold
pKd (SHANK1, Q9Y566; [2]): below the threshold
pKd (DLG1_1, Q12959; [2]): below the threshold
pKd (GORASP2, Q9H8Y8; [2]): below the threshold
pKd (SCRIB_2, Q14160; [2]): below the threshold
pKd (PDLIM1, O00151; [2]): below the threshold
pKd (MPP6, Q9NZW5; [2]): below the threshold
pKd (GOPC, Q9HD26; [2]): below the threshold
pKd (TJP2_1, Q9UDY2; [2]): below the threshold
pKd (ARHGEF11, O15085; [2]): below the threshold
pKd (IL16_1, Q14005; [2]): below the threshold
pKd (MAGI2_2, Q86UL8; [2]): below the threshold
pKd (AHNAK1, Q09666; [2]): below the threshold
pKd (DLG3_2, Q92796; [2]): 4.21
pKd (LDB3, O75112; [2]): below the threshold

PKRSFIESNV [TANC1, Q9C0D5]
pKd (MAGI1_2, Q96QZ7; [2]): 4.37
pKd (SCRIB_3, Q14160; [2]): 5.05
pKd (DLG4_3, P78352; [2]): 4.27
pKd (GRASP, Q7Z6J2; [2]): below the threshold
pKd (RADIL, Q96JH8; [2]): 3.67
pKd (GRIP1_5, Q9Y3R0; [2]): below the threshold
pKd (MAGI3_2, Q5TCQ9; [2]): 5.24
pKd (DLG1_3, Q12959; [2]): 4.32
pKd (TJP1_2, Q07157; [2]): below the threshold
pKd (LIN7A, O14910; [2]): 3.49
pKd (SIPA1L2, Q9P2F8; [2]): below the threshold
pKd (DLG3_1, Q92796; [2]): 4.15
pKd (DLG4_2, P78352; [2]): 5.04
pKd (FRMPD3, Q5JV73; [2]): below the threshold
pKd (SHANK1, Q9Y566; [2]): below the threshold
pKd (DLG1_1, Q12959; [2]): 4.69
pKd (GORASP2, Q9H8Y8; [2]): 4.06
pKd (SCRIB_2, Q14160; [2]): 4.88
pKd (PDLIM1, O00151; [2]): below the threshold
pKd (MPP6, Q9NZW5; [2]): 3.76
pKd (GOPC, Q9HD26; [2]): 3.85
pKd (TJP2_1, Q9UDY2; [2]): below the threshold
pKd (ARHGEF11, O15085; [2]): 3.55
pKd (IL16_1, Q14005; [2]): 4.83
pKd (MAGI2_2, Q86UL8; [2]): 4.81
pKd (AHNAK1, Q09666; [2]): below the threshold
pKd (DLG3_2, Q92796; [2]): 4.77
pKd (LDB3, O75112; [2]): below the threshold

DDEDRLVIEI [ZNF831, Q5JPB2]
pKd (MAGI1_2, Q96QZ7; [2]): below the threshold
pKd (SCRIB_3, Q14160; [2]): 3.48
pKd (DLG4_3, P78352; [2]): below the threshold
pKd (GRASP, Q7Z6J2; [2]): 3.53
pKd (RADIL, Q96JH8; [2]): 4.02
pKd (GRIP1_5, Q9Y3R0; [2]): below the threshold
pKd (MAGI3_2, Q5TCQ9; [2]): below the threshold
pKd (DLG1_3, Q12959; [2]): below the threshold
pKd (TJP1_2, Q07157; [2]): below the threshold
pKd (LIN7A, O14910; [2]): below the threshold
pKd (SIPA1L2, Q9P2F8; [2]): below the threshold
pKd (DLG3_1, Q92796; [2]): below the threshold
pKd (DLG4_2, P78352; [2]): below the threshold
pKd (FRMPD3, Q5JV73; [2]): below the threshold
pKd (SHANK1, Q9Y566; [2]): below the threshold
pKd (DLG1_1, Q12959; [2]): below the threshold
pKd (GORASP2, Q9H8Y8; [2]): 4.72
pKd (SCRIB_2, Q14160; [2]): below the threshold
pKd (PDLIM1, O00151; [2]): below the threshold
pKd (MPP6, Q9NZW5; [2]): below the threshold
pKd (GOPC, Q9HD26; [2]): below the threshold
pKd (TJP2_1, Q9UDY2; [2]): below the threshold
pKd (ARHGEF11, O15085; [2]): 4.07
pKd (IL16_1, Q14005; [2]): below the threshold
pKd (MAGI2_2, Q86UL8; [2]): below the threshold
pKd (AHNAK1, Q09666; [2]): below the threshold
pKd (DLG3_2, Q92796; [2]): 4
pKd (LDB3, O75112; [2]): 3.57

QMNQTLPVQV [EPHB3, P54753]
pKd (MAGI1_2, Q96QZ7; [2]): below the threshold
pKd (SCRIB_3, Q14160; [2]): 3.48
pKd (DLG4_3, P78352; [2]): below the threshold
pKd (GRASP, Q7Z6J2; [2]): below the threshold
pKd (RADIL, Q96JH8; [2]): 4.44
pKd (GRIP1_5, Q9Y3R0; [2]): below the threshold
pKd (MAGI3_2, Q5TCQ9; [2]): below the threshold
pKd (DLG1_3, Q12959; [2]): 3.76
pKd (TJP1_2, Q07157; [2]): 3.72
pKd (LIN7A, O14910; [2]): below the threshold
pKd (SIPA1L2, Q9P2F8; [2]): 3.5
pKd (DLG3_1, Q92796; [2]): below the threshold
pKd (DLG4_2, P78352; [2]): 3.66
pKd (FRMPD3, Q5JV73; [2]): below the threshold
pKd (SHANK1, Q9Y566; [2]): 3.54
pKd (DLG1_1, Q12959; [2]): below the threshold
pKd (GORASP2, Q9H8Y8; [2]): 3.81
pKd (SCRIB_2, Q14160; [2]): below the threshold
pKd (PDLIM1, O00151; [2]): below the threshold
pKd (MPP6, Q9NZW5; [2]): below the threshold
pKd (GOPC, Q9HD26; [2]): 3.58
pKd (TJP2_1, Q9UDY2; [2]): below the threshold
pKd (ARHGEF11, O15085; [2]): 4.36
pKd (IL16_1, Q14005; [2]): below the threshold
pKd (MAGI2_2, Q86UL8; [2]): below the threshold
pKd (AHNAK1, Q09666; [2]): below the threshold
pKd (DLG3_2, Q92796; [2]): below the threshold
pKd (LDB3, O75112; [2]): below the threshold

From PMC9482650, “Quantitative fragmentomics allow affinity mapping of interactomes” (Nature Communications, 2022)
